For test [1], the target named is T1, apo-transferrin (human, UniProt P02787 20-698).
T1 construct: transferrin (serotransferrin), human, iron-free state; Several paragraphs and legends say only 'transferrin' where the text says apo-transferrin for the same panels; rows told of 'transferrin' alone are tied to this molecule; also called Tf; TRF; source: bought: Sigma (purity greater than 98%)
The experiment in a line: SPR. To be noted: plateau of the association phase, read off a plot.

In test [2] the target is T1, apo-transferrin. The experiment in a line: SPR; BIAcore 2000; apo-transferrin or holo-transferrin immobilised on a CM5 chip (~2000 RU); serial concentrations of thrombin, FXIIa, fibrinogen, AT, prothrombin or FXII in Tris–HCl buffer (20 mM, pH 7.4) at 10 μL/min. Background: Surface plasmon resonance follows binding to a sensor surface in real time, without labels.
Another test deals with human α-thrombin (human) (UniProt P00734).
Test [3] deals with T1, apo-transferrin. Briefly: SPR; CM5 chip coupled with 100 RU of transferrin; binding molar ratio from the saturation RU of the flowing phase and the RU of the immobilised phase. To be noted: for stoichiometry N: both partners purified.
Test [4] has as its target T1, apo-transferrin. The experiment in a line: SPR; transferrin with synthetic peptides (TH16, FX18, RCL19 and their scrambled controls). As to conditions: both partners purified.

With “wild-type thrombin (from UniProt P00734) R117A; R122A”, the response worked out at 2.5 RU with apo-transferrin [1] (25 nM trace, parent: est. 9) and 5.5 RU with apo-transferrin [1] (50 nM trace, parent: est. 14).

FXII (natural protein): in the test with apo-transferrin [2], the Kd (usually the concentration at which binding is half-saturated) was determined as 40 nM; the koff (in general, the rate constant with which the complex falls apart) was found to be 0.0012 s⁻¹; the kon (usually the rate constant with which the complex forms) came out at 30000 M⁻¹ s⁻¹.

In the case of “apo-transferrin (from UniProt P02787 20-698) (natural protein)”, in the test with human α-thrombin (human), the enhancement of the enzymatic activity of thrombin (chromogenic substrate) by transferrin at 0.2, 1 and 5 μM was 1.8 fold; the increase of fibrinopeptide A released from fibrinogen by thrombin after 30 min with transferrin at 0.2, 1 and 5 μM (RP-HPLC) turned out to be 1.2 fold; the increase of fibrinopeptide B released from fibrinogen by thrombin after 30 min with transferrin at 0.2, 1 and 5 μM (RP-HPLC) was determined as 4.2 fold.

Take “human α-thrombin (from UniProt P00734 364-622) (enzyme)”: the stoichiometry N (transferrin per thrombin (molar ratio)) in the test with apo-transferrin [3] is 1. This molecule displayed a Kd with apo-transferrin [2] of 7.7 nM.

B1: RCL19 (peptide)
peptide: EAAASTAVVIAGRSLNPNR
notes: from the reactive center loop (RCL) of antithrombin; also called synthetic peptide from the RCL of AT; source: synthetic peptide
Regarding B1, in the test with apo-transferrin [4], the Kd was 556 nM, the koff is 0.001 s⁻¹ and the on-rate (kon) stood at 1800 M⁻¹ s⁻¹.

B2: fibrinogen (natural protein)
chain 1: ADSGEGDFLAEGGGVRGPRVVERHQSACKDSDWPFCSDEDWNYKCPSGCRMKGLIDEVNQDFTNRINKLKNSLFEYQKNNKDSHSLTTNIMEILRGDFSSANNRDNTYNRVSEDLRSRIEVLKRKVIEKVQHIQLLQKNVRAQLVDMKRLEVDIDIKIRSCRGSCSRALAREVDLKDYEDQQKQLEQVIAKDLLPSRDRQHLPLIKMKPVPDLVPGNFKSQLQKVPPEWKALTDMPQMRMELERPGGNEITRGGSTSYGTGSETESPRNPSSAGSWNSGSSGPGSTGNRNPGSSGTGGTATWKPGSSGPGSTGSWNSGSSGTGSTGNQNPGSPRPGSTGTWNPGSSERGSAGHWTSESSVSGSTGQWHSESGSFRPDSPGSGNARPNNPDWGTFEEVSGNVSPGTRREYHTEKLVTSKGDKELRTGKEKVTSGSTTTTRRSCSKTVTKTVIGPDGHKEVTKEVVTSEDGSDCPEAMDLGTLSGIGTLDGFRHRHPDEAAFFDTASTGKTFPGFFSPMLGEFVSETESRGSESGIFTNTKESSSHHPGIAEFPSRGKSSSYSKQFTSSTSYNRGDSTFESKSYKMADEAGSEADHEGTHSTKRGHAKSRPVRGIHTSPLGKPSLSP
chain 2: QGVNDNEEGFFSARGHRPLDKKREEAPSLRPAPPPISGGGYRARPAKAAATQKKVERKAPDAGGCLHADPDLGVLCPTGCQLQEALLQQERPIRNSVDELNNNVEAVSQTSSSSFQYMYLLKDLWQKRQKQVKDNENVVNEYSSELEKHQLYIDETVNSNIPTNLRVLRSILENLRSKIQKLESDVSAQMEYCRTPCTVSCNIPVVSGKECEEIIRKGGETSEMYLIQPDSSVKPYRVYCDMNTENGGWTVIQNRQDGSVDFGRKWDPYKQGFGNVATNTDGKNYCGLPGEYWLGNDKISQLTRMGPTELLIEMEDWKGDKVKAHYGGFTVQNEANKYQISVNKYRGTAGNALMDGASQLMGENRTMTIHNGMFFSTYDRDNDGWLTSDPRKQCSKEDGGGWWYNRCHAANPNGRYYWGGQYTWDMAKHGTDDGVVWMNWKGSWYSMRKMSMKIRPFFPQQ
chain 3: YVATRDNCCILDERFGSYCPTTCGIADFLSTYQTKVDKDLQSLEDILHQVENKTSEVKQLIKAIQLTYNPDESSKPNMIDAATLKSRKMLEEIMKYEASILTHDSSIRYLQEIYNSNNQKIVNLKEKVAQLEAQCQEPCKDTVQIHDITGKDCQDIANKGAKQSGLYFIKPLKANQQFLVYCEIDGSGNGWTVFQKRLDGSVDFKKNWIQYKEGFGHLSPTGTTEFWLGNEKIHLISTQSAIPYALRVELEDWNGRTSTADYAMFKVGPEADKYRLTYAYFAGGDAGDAFDGFDFGDDPSDKFFTSHNGMQFSTWDNDNDKFEGNCAEQDGSGWWMNKCHAGHLNGVYYQGGTYSKASTPNGYDNGIIWATWKTRWYSMKKTTMKIIPFNRLTIGEGQQHHLGGAKQAGDV
notes: fibrinogen alpha chain; fibrinogen beta chain; fibrinogen gamma chain; the SPR and native gel methods say only 'fibrinogen'; also called factor I; source: bought: Cayman (16088); copies: + +
In the case of B2, the stoichiometry N – broadly, a count of units in the complex or per binding partner – with apo-transferrin [3] is 4 apo-transferrin per fibrinogen (molar ratio).

Take RIGKHSRTRYERNIEK (source: synthetic peptide) [TH16]: in the test with apo-transferrin [4], binding was put at a Kd of 97 nM, the off-rate (koff) stood at 0.0003 s⁻¹ and the on-rate constant (kon) was 3100 M⁻¹ s⁻¹.

B3: human α-FXIIa (enzyme)
chain 1: IPPWEAPKEHKYKAEEHTVVLTVTGEPCHFPFQYHRQLYHKCTHKGRPGPQPWCATTPNFDQDQRWGYCLEPKKVKDHCSKHSPCQKGGTCVNMPSGPHCLCPQHLTGNHCQKEKCFEPQLLRFFHKNEIWYRTEQAAVARCQCKGPDAHCQRLASQACRTNPCLHGGRCLEVEGHRLCHCPVGYTGAFCDVDTKASCYDGRGLSYRGLARTTLSGAPCQPWASEATYRNVTAEQARNWGLGGHAFCRNPDNDIRPWCFVLNRDRLSWEYCDLAQCQTPTQAAPPTPVSPRLHVPLMPAQPAPPKPQPTTRTPPQSQTPGALPAKREQPPSLTRNGPLSCGQRLRKSLSSMTR
chain 2: VVGGLVALRGAHPYIAALYWGHSFCAGSLIAPCWVLTAAHCLQDRPAPEDLTVVLGQERRNHSCEPCQTLAVRSYRLHEAFSPVSYQHDLALLRLQEDADGSCALLSPYVQPVCLPSGAARPSETTLCQVAGWGHQFEGAEEYASFLQEAQVPFLSLERCSAPDVHGSSILPGMLCAGFLEGGTDACQGDSGGPLVCEDQAAERRLTLQGIISWGSGCGDRNKPGVYTDVAYYLAWIREHTVS
notes: factor XIIa heavy chain, cut product of human factor XII; factor XIIa light chain (protease domain), cut product of human factor XII; also called factor XIIa; source: bought: Enzyme Research Laboratories (HFXIIa 1212a)
Regarding B3, in the test with apo-transferrin [3], the “stoichiometry N” value is 1 transferrin per FXIIa (molar ratio). For the same molecule, in the test with apo-transferrin [2] (both partners purified), binding was characterised by a dissociation constant (Kd) of 13.9 nM, the koff worked out at 0.0025 s⁻¹ and the on-rate (kon) came out at 180000 M⁻¹ s⁻¹.

In the test with apo-transferrin [4], RRNHSCEPCQTLAVRSYR (source: synthetic peptide) [FX18] returned a Kd of 143 nM, a koff of 0.0004 s⁻¹ and a kon of 2800 M⁻¹ s⁻¹.
